Earlier results in article PMC9241073.
Read-outs that look alike come from different tables or passages of the source.

Assays:
PAK1 (Homo sapiens) [1] = biological target: PAK1 (Homo sapiens) (UniProt Q13153)
PAK1 (Homo sapiens) [2] = biological target: PAK1 (Homo sapiens) (UniProt Q13153); remark: listed apart in the source

Chain of UniProt Q13153 (Q13153 2-545): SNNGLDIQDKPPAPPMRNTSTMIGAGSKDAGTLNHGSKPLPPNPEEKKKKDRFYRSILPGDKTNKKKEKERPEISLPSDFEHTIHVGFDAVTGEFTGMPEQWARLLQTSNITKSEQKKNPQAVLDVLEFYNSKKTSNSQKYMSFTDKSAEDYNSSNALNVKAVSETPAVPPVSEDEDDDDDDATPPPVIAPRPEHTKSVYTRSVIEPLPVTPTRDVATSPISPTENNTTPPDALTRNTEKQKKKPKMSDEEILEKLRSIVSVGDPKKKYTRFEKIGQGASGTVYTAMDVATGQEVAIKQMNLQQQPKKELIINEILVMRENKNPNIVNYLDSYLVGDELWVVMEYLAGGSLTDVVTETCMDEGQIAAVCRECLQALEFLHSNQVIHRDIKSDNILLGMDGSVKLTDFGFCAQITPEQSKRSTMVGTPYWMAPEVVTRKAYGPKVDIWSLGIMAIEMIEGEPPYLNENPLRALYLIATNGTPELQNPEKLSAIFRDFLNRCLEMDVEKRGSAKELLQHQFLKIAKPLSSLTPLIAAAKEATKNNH

Kd (PAK1 (Homo sapiens) [1]): > 2000 nM
Kd (PAK1 (Homo sapiens) [2]): > 1000 nM
Substance: CDC42 (from UniProt P60953)
